Assay [1] deals with T1, JAMA on CHO cells (CHO-JAMA transfectants) (UniProt Q9Y624 28-299, limits assumed).
T1 construct: whole, on cells; Construct not described
T1 sequence (looked up): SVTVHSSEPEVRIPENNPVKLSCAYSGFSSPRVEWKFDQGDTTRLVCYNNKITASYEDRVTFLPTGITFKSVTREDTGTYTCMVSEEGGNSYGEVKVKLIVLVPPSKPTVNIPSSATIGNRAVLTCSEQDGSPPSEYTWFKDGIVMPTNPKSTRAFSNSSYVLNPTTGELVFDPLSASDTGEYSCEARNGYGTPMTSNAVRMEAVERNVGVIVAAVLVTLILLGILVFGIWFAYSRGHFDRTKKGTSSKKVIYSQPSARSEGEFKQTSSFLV
Briefly: staining of CHO-JAMA transfectants.

The target of assay [2] is T2, purified extracellular domain of CAR tagged with GST (CAR-GST) (UniProt P78310 20-237, limits assumed).
T2 construct: extracellular domain; also called soluble CAR; sCAR; not shown: GST tag
T2 sequence (looked up): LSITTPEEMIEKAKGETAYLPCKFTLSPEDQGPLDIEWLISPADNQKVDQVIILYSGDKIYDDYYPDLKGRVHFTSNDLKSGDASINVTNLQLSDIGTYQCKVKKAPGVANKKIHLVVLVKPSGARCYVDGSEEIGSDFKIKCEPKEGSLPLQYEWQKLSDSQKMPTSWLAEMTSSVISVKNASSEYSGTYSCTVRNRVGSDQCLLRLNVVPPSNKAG
Briefly: ELISA, antigen coated at 5 µg/ml. A general note: An ELISA detects its analyte on a solid surface through an enzyme-linked reagent.

The target of another assay is T3, JAMA-Fc (UniProt Q9Y624 28-238, limits assumed).
T3 construct: the construct is not described; not shown: Fc tag
T3 sequence (looked up): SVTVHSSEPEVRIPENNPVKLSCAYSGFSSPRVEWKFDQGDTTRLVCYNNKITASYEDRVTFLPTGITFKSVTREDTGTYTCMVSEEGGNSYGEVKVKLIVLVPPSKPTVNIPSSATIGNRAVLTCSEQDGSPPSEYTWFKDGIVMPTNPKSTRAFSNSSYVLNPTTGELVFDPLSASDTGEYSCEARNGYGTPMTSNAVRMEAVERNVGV
Briefly: ELISA, antigen coated at 5 µg/ml.

The target of another assay is T4, JAMC_Fc (UniProt Q9BX67 32-241, limits assumed).
T4 construct: Construct not described; not shown: Fc tag
T4 sequence (looked up): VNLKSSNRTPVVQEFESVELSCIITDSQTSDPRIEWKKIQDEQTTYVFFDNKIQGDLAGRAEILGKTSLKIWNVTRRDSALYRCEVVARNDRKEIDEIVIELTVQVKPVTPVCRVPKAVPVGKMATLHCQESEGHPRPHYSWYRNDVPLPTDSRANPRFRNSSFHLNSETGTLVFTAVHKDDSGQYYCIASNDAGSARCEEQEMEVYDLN
Briefly: ELISA, antigen coated at 5 µg/ml.

A further assay concerns the target T5, CLMP-Fc (UniProt Q9H6B4 19-235, limits assumed).
T5 construct: Construct not described; also called CAR-like membrane protein; not shown: Fc tag
T5 sequence (looked up): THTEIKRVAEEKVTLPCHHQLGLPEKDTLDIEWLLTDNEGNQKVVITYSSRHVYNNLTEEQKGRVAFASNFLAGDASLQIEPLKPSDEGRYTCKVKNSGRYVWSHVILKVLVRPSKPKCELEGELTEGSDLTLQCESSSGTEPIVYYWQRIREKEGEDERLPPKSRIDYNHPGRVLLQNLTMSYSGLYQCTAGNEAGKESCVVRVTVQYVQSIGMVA
The experiment in a line: ELISA, antigen coated at 5 µg/ml.

In the next assay the target is T6, EVA-His (UniProt O60487 27-154, limits assumed).
T6 construct: Construct not described; also called EVA1; not shown: His tag
T6 sequence (looked up): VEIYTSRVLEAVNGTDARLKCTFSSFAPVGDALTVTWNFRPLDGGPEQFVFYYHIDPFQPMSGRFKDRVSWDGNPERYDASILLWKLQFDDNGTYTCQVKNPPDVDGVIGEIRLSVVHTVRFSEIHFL
Briefly: ELISA, antigen coated at 5 µg/ml.

A further assay has as its target T7, SIRPA-HIS (UniProt P78324 31-370, limits assumed).
T7 construct: Construct not described; not shown: His tag
The experiment in a line: ELISA, antigen coated at 5 µg/ml.

The target in a further assay is T8, JAMA-GST (UniProt Q9Y624 28-238, limits assumed).
T8 construct: Construct not described; not shown: GST tag
T8 sequence (looked up): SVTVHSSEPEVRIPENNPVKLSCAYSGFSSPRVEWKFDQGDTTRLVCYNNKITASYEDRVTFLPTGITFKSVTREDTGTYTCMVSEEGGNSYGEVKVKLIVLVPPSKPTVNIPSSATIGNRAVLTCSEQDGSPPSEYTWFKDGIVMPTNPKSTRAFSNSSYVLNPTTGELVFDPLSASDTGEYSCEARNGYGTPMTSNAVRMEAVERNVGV
The experiment in a line: ELISA, antigen coated at 5 µg/ml.

Another assay concerns the target BSA (UniProt P02769 25-607). Briefly: ELISA, antigen coated at 5 µg/ml.

Sequence of BSA (P02769 25-607 limits assumed): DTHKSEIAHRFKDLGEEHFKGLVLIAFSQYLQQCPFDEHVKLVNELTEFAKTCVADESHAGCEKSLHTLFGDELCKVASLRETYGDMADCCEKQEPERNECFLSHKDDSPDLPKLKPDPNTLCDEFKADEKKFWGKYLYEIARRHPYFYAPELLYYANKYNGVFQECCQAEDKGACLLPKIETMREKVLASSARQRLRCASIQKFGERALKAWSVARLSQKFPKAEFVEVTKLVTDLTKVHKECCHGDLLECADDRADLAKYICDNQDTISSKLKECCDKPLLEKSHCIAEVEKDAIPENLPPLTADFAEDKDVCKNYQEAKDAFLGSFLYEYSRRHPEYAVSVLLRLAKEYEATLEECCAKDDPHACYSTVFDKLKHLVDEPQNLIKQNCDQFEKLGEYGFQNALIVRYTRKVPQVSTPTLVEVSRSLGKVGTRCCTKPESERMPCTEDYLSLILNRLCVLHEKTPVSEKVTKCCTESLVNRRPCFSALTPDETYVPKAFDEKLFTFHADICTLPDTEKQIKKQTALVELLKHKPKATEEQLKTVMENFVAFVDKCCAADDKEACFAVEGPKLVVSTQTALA
T7 sequence (P78324 31-370 limits assumed): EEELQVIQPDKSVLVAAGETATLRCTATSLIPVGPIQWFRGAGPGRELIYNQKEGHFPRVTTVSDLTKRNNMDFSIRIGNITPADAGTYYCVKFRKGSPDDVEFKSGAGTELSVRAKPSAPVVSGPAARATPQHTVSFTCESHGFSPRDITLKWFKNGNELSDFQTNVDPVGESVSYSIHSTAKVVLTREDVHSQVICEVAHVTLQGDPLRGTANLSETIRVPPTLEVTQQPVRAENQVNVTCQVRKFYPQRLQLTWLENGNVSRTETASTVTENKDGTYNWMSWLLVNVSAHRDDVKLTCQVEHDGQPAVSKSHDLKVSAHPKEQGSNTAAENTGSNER

B1: DW100 (antibody, IgG1, V domains shown)
VH: DVQLVESGAELVRPGASVKLSCKALAYTFTDYEMHWVKQTPVHGLEWIGIIHPGSGGTVYNQKFKGKATLTADKSSSTAYMELSSLTSEDSTVYYCTRRRYYGSSYWYFDVWGAGN
VL: VLTQSPASLAASVGETVTITCRASENIYYSLAWYQQKQGKSPQLLIYNANSLEDGVPSRFSGSGSGTQYSLKINSMQPEDTATYFCEQTYDVPLTFGAGTKLEL
notes: also called DW100 mAb; anti-JAML monoclonal antibody DW100
For B1, the binding result in assay [1] was “no binding”; in assay [2], “no binding (tested: antibody 10 µg/ml)”; with JAMA-Fc it was “no binding (tested: antibody 10 µg/ml)”; with JAMC_Fc, “no binding (tested: antibody 10 µg/ml)”; with CLMP-Fc, “no binding (tested: antibody 10 µg/ml)”; in the assay with EVA-His it was “no binding (tested: antibody 10 µg/ml)”. Also, the binding result with SIRPA-HIS, in the assay with JAMA-GST and with BSA was “no binding (tested: antibody 10 µg/ml)” throughout.

B2: DW216 (antibody, IgG1, V domains shown)
VH: DVQLVESGPGLVKPSQSLSLTCTVTGYSITSDYAWNWIRQFPGNKLEWMGYISSSGNSNYNPSLKSRISITRDTSKNQFFLQLNSVTTEDTATYYCAGATGYSMDYWGQGTTLTVK
VL: VLTQSPAIMSASLGERVTMTCTASSSVSSSYLHWYQQKPGSSPKLWIYSTSNLASGVPARFSGSGSGTSYSLTISSMEAEDAATYYCHQYHRSPFTFGSGTKLELK
notes: also called DW216 mAb; H3L3
With B2, the binding result is recorded as “no binding” in [1]; “no binding (tested: antibody 10 µg/ml)” in [2]; “no binding (tested: antibody 10 µg/ml)” in the assay with JAMA-Fc; “no binding (tested: antibody 10 µg/ml)” with JAMC_Fc; “no binding (tested: antibody 10 µg/ml)” with CLMP-Fc; “no binding (tested: antibody 10 µg/ml)” in the assay with EVA-His. The binding result with SIRPA-HIS, with JAMA-GST and with BSA was “no binding (tested: antibody 10 µg/ml)” in each case.

The values above are taken from patent US20140242068A1 (EMORY UNIVERSITY, published 2014).
